± gives the standard error. For some assays here: This sample holds only a part of the variants without activity.
B1: glmS ribozyme (parent)
chain: AUAAAAGCGCCAGAACUACAGAAAUGUAGUUGACGAGGAGGAGGUUUAUCGAAUUUUCGGCGGAUGCCUCCAAA

How the values were obtained:
Settings in all cases: with glucosamine-6-phosphate
glucosamine-6-phosphate [1] = variants of: B1; test: kcat; higher = faster cleavage; RNA array
How it was run: (§1)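 Tiles of sequenced MiSeq chips were imaged over ~14 h at 37 °C. On them, barcoded ribozyme variants had been transcribed in situ by E. coli RNA polymerase and were tracked via a hybridised Cy3 probe while glucosamine-6-phosphate (40 μM to 10 mM) in HEPES/KCl/Mg(OAc)2 buffer flowed in. Per-tile medians, normalised to baseline and to non-cleaving reference variants, were fit to one- or two-exponential decays for kobs, and weighted Michaelis–Menten fits gave kcat and KM.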

glucosamine-6-phosphate [2] = variants of: B1; test: KM; higher = weaker cofactor use; RNA array
How it was run: as §1

glucosamine-6-phosphate [3] = variants of: B1; test: self-cleavage kobs at 40 uM GlcN6P; higher = faster cleavage; RNA array
How it was run: as §1

glucosamine-6-phosphate [4] = variants of: B1; test: self-cleavage kobs at 160 uM GlcN6P; higher = faster cleavage; RNA array
How it was run: as §1

glucosamine-6-phosphate [5] = variants of: B1; test: self-cleavage kobs at 640 uM GlcN6P; higher = faster cleavage; RNA array
How it was run: as §1

glucosamine-6-phosphate [6] = variants of: B1; test: self-cleavage kobs at 2500 uM GlcN6P; higher = faster cleavage; RNA array
How it was run: as §1

glucosamine-6-phosphate [7] = variants of: B1; test: self-cleavage kobs at 10000 uM GlcN6P; higher = faster cleavage; RNA array
How it was run: as §1

| Variant | kcat (glucosamine-6-phosphate [1]) | KM (glucosamine-6-phosphate [2]) | self-cleavage kobs at 40 uM GlcN6P (glucosamine-6-phosphate [3]) | self-cleavage kobs at 160 uM GlcN6P (glucosamine-6-phosphate [4]) | self-cleavage kobs at 640 uM GlcN6P (glucosamine-6-phosphate [5]) | self-cleavage kobs at 2500 uM GlcN6P (glucosamine-6-phosphate [6]) | self-cleavage kobs at 10000 uM GlcN6P (glucosamine-6-phosphate [7]) |
| --- | --- | --- | --- | --- | --- | --- | --- |
| G40A C71U | 0.0789 ± 0.028 s⁻¹ | 3660 ± 1500 µM | 0.000981 ± 7.3e-05 s⁻¹ | 0.00194 ± 0.00048 s⁻¹ | 0.0113 ± 0.0013 s⁻¹ | 0.0322 ± 0.009 s⁻¹ | 0.0591 ± 0.0079 s⁻¹ |
| C16U A64G | 0.018 ± 0.0074 s⁻¹ |  | 0.000665 ± 7.5e-05 s⁻¹ | 0.00126 ± 0.00023 s⁻¹ | 0.00457 ± 0.00072 s⁻¹ | 0.0111 ± 0.0028 s⁻¹ | 0.0176 ± 0.0031 s⁻¹ |
| G40U G66C | 0.000542 ± 7.3e-05 s⁻¹ | 2060 ± 890 µM |  |  |  |  | 0.00046 ± 6.4e-05 s⁻¹ |
| A39U G41A | 0.00029 ± 1.6e-05 s⁻¹ | 651 ± 93 µM |  | 5.88e-05 ± 1.3e-05 s⁻¹ | 0.00014 ± 1.5e-05 s⁻¹ | 0.00025 ± 2.7e-05 s⁻¹ | 0.000257 ± 3e-05 s⁻¹ |
| C70G C71U | 0.000112 ± 1.4e-05 s⁻¹ | 401 ± 170 µM |  | 5.07e-05 ± 7.8e-06 s⁻¹ | 6.12e-05 ± 4.8e-06 s⁻¹ | 0.000102 ± 8.1e-06 s⁻¹ | 0.00011 ± 8.6e-06 s⁻¹ |
| U30G G32A U49G | 6.41e-05 ± 1.8e-05 s⁻¹ |  |  |  |  | 6.89e-05 ± 2.1e-05 s⁻¹ | 5.26e-05 ± 1.5e-05 s⁻¹ |
| A15G G37U | 1.02e-05 ± 7.1e-07 s⁻¹ | 623 ± 300 µM | < 1e-05 s⁻¹ |  |  |  |  |
| C19A C67G | 0.000349 ± 4.1e-05 s⁻¹ | 295 ± 93 µM |  | 0.000171 ± 4.8e-05 s⁻¹ | 0.000207 ± 7.2e-05 s⁻¹ | 0.000309 ± 7.1e-05 s⁻¹ | 0.000347 ± 7.3e-05 s⁻¹ |
| C61U C70U | 3.98e-05 ± 5.3e-06 s⁻¹ |  |  |  |  | 3.31e-05 ± 1e-05 s⁻¹ | 3.47e-05 ± 6e-06 s⁻¹ |
| U31G G59A | 0.000131 ± 8.6e-06 s⁻¹ |  | < 1e-05 s⁻¹ |  |  |  | 4.18e-05 ± 1.3e-05 s⁻¹ |
| A48G U57C C61A | < 1e-05 s⁻¹ |  |  |  |  | < 1e-05 s⁻¹ |  |
| G44U U56G | 0.00018 ± 3.5e-05 s⁻¹ | 3010 ± 1100 µM |  |  | 3.67e-05 ± 1.1e-05 s⁻¹ | 6.96e-05 ± 1.9e-05 s⁻¹ | 0.00015 ± 3.7e-05 s⁻¹ |
| U55G C70A | 0.000145 ± 2.6e-05 s⁻¹ |  | 5.03e-05 ± 1.3e-05 s⁻¹ | 5.52e-05 ± 1.4e-05 s⁻¹ | 0.00015 ± 3e-05 s⁻¹ | 0.000147 ± 2.4e-05 s⁻¹ | 0.000131 ± 2.6e-05 s⁻¹ |
| A39C A53G | 0.00638 ± 0.001 s⁻¹ | 1890 ± 400 µM | 0.000151 ± 1.5e-05 s⁻¹ | 0.000404 ± 6.3e-05 s⁻¹ | 0.00157 ± 0.00027 s⁻¹ | 0.00372 ± 0.00061 s⁻¹ | 0.00541 ± 0.0007 s⁻¹ |
| A6C C70G | 1.09e-05 ± 2.1e-06 s⁻¹ |  |  |  |  |  |  |
| U30A U65C | 0.000105 ± 8e-06 s⁻¹ | 2860 ± 590 µM |  |  |  | 4.68e-05 ± 1.5e-05 s⁻¹ | 8.23e-05 ± 1.6e-05 s⁻¹ |
